B1: human placental lactogen (protein, UniProt P0DML2 27-217, looked up)
Chorionic somatomammotropin …: VQTVPLSRLFDHAMLQAHRAHQLAIDTYQEFEETYIPKDQKYSFLHDSQTSFCFSDSIPTPSNMEETQQKSNLELLRISLLLIESWLEPVRFLRSMFANNLVYDTSDSDDYHLLKDLEEGIQTLMGRLEDGSRRTGQILKQTYSKFDTNSHNHDALLKNYGLLYCFRKDMDKVETFLRMVQCRSVEGSCGF

How the values were obtained:
IGF-I levels = test: Single-dose pharmacodynamics, IGF-I levels in Rhesus monkeys; type: in vivo; details: single dose 1 mg/kg intravenously or subcutaneously; seven-day study
Description: The placebo was 0.5 ml formulation buffer administered subcutaneously. IGF-1 levels were determined as in Example XIII.

[1] = In vivo half-life of pegylated wild-type hGH in rats
hGHbp = target: T1, hGHbp (Homo sapiens, UniProt P10912); details: Lowman et al., J. Biol. Chem.; cited from earlier work
T1 construct: the extracellular domain of its receptor (hGHbp)
T1 sequence (P10912 19-256 limits assumed): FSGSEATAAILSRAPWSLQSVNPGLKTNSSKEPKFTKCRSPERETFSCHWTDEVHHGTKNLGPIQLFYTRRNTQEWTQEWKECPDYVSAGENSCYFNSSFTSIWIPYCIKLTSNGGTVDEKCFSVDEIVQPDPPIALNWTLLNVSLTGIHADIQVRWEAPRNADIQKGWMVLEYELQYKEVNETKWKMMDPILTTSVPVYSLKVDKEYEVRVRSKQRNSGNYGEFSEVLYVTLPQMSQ

| Molecule | longer half-life than the non-pegylated protein [1] | further results |
| --- | --- | --- |
| PEG-4/5-B2036: B2036 preparation containing primarily conjugates with four and five PEG(5000) groups | – | IGF-I levels after single injection (IGF-I levels): reduced at one day after administration, continued to decrease until four days after administration, and remained low throughout the seven-day study |
| conjugate containing five PEG(5000) groups: pegylated wild-type hGH, approximately 48 kD | ~11 fold | – |
| conjugate containing seven PEG groups: pegylated wild-type hGH, approximately 57 kD | ~18 fold | – |
| wild-type hGH conjugate containing two PEG(5000) groups: pegylated wild-type hGH, approximately 33 kD | ~4 fold | – |
| B1 | – | binds weaker than hGH (hGHbp): ~ 2000 fold |
